The results in this text go back to patent US8809529B2, “Imidazo[1,2-α]pyrazine derivatives” (Promega Corporation, priority 2010, dated 2014).

Series [1] deals with HEK293 cells. As to the kind of experiment: Stability of 9B8 and V2 in HEK293 cells. Particulars: HEK293 cells lysed in assay reagent, 20 μM PBI-3939. Type of series: cell-based, human. As for the experimental part: The variants 9B8 and V2 (9B8+K33N+T39T+K43R+Y68D) were also screened in HEK293 cells to determine their stability. The variants were cloned into pF4Ag and transfected into HEK293 cells (15,000 cells/well) as previously described. After transfection, the cells were lysed in assay reagent (as previously described; no PBI-3939), and luminescence measured using the assay reagent with 20 μM PBI-3939. […] This is consistent with the half-life seen for these variants in E. coli (Table 26).

Series [2] is classed as physicochemical, E. coli. Particulars: for ½ life: 50° C. As for the experimental part: Lysates of E. coli containing 15C1, 9B8, 9F6, 8A3 or IV and E. coli expressing hRL (SEQ ID NO: 30 and 31) were prepared from induced cultures as described previously. Lysate samples were diluted 1:1000 with a buffer containing 10 mM HEPES pH 7.5 with 0.1% gelatin. Diluted lysate (100 μL) samples, in replicate 96-well plates, were incubated at 50° C. At different time points, plates were placed at −70° C. (minus seventy degrees Celsius). Prior to measuring the luminescence as described previously, each plate was thawed at room temperature, i.e., 22° C., for 10 min. Samples (10 μL of each thawed sample) were assayed using native coelenterazine as a substrate. Luminescence was measured immediately after addition of assay buffer for each time point plate. The half-life of the protein, which indicated protein stability, was calculated from the luminescence data for each time point using methods known in the art.

Series [3] can be described thus: Brightness of purified OgLuc variant compared to firefly luciferase. It is filed as biochemical. As for the experimental part: The 9B8 OgLuc variant was overexpressed and purified as described in Example 33. Reactions between diluted enzyme and substrate were performed using the following 2× buffer/assay reagent: 100 mM MES pH 6.0, 1 mM CDTA, 150 mM KCl, 35 mM thiourea, 2 mM DTT, 0.25% TERGITOL® NP-9 (v/v), 0.025% MAZU® DF 204, 10 mg/mL […], and 20 μM PBI-3939. The final assay concentrations of purified enzyme and substrate were 0.5 pM and […], respectively. In parallel, reactions between diluted purified firefly luciferase (i.e., QUANTILUM® Recombinant Luciferase (Promega Corp.)) and luciferin were analyzed. The assay buffer/reagent for the firefly luciferase reaction was BRIGHT-GLO™, and the final assay concentrations were 0.5 pM enzyme and 500 μM luciferin. As the buffers/reagents for each reaction were known to provide “glow” kinetics, a 15 min time point was used to collect luminescence data.

Series [4] has as its target T1, caspase-3 (Homo sapiens, UniProt P42574).
T1 sequence (P42574 29-175 limits assumed): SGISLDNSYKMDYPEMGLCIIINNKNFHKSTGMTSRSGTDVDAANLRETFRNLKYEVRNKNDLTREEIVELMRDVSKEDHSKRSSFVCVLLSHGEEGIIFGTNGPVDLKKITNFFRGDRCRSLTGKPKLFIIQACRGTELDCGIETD
T1 sequence (P42574 176-277 limits assumed): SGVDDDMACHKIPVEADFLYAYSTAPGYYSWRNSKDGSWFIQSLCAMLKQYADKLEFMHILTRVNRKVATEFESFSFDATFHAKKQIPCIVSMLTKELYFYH
As to the kind of experiment: Caspase-3 bioluminescent assay with 9B8 opt and z-DEVD-coelenterazine-h. It is filed as biochemical. As for the experimental part:
1. […] Purified caspase-3 enzyme was mixed with an E. coli lysate sample expressing the variant 9B8 opt, which was prepared as described in Example 27, and diluted 10-fold in a buffer containing 100 mM MES pH 6.0, 1 mM CDTA, 150 mM KCl, 35 mM thiourea, 2 mM DTT, 0.25% TERGITOL® NP-9 (v/v), 0.025% MAZU® DF 204, with or without 23.5 μM z-DEVD-coelenterazine-h in 100 mM HEPES pH 7.5 (“DEVD” disclosed as SEQ ID NO: 581). The caspase-3 enzyme was incubated with the lysate sample for 3 hrs at room temperature, and luminescence detected on a Turner MODULUS™ luminometer at various time points. A sample containing only bacterial lysate and a sample containing only caspase-3 were used as controls. Three replicates were used.

In series [5] the test system is antioxidant response element (ARE). The series is described as follows: ARE transcriptional reporter, reverse transfection, HEK293 cells. Type of series: cell-based, human. The settings on record: for baseline: 24 h, 100 ng DNA. The method, then: HEK293 cells were trypsinized (T75 flask, 3 mL trypsin) and resuspended in […] (approximately 8.9×10^6 total cells) in medium containing DMEM+10% FBS+1×NEAA. Each transcriptional reporter was prepared for transfection by mixing 1.2 mL OPTI-MEM®, 12 μL transcription reporter DNA (100 ng) and 36 μL FUGENE® HD transfection reagent together and incubated at room temperature for 35 min. Following incubation, 624 μL of the transfection/reporter DNA mixture was added to 12 mL of cell suspension and mixed by inversion. After mixing, 100 μL of the cell/DNA mixture was added to wells of a 96-well plate (2 constructs/plate). The cells were incubated at 37° C. for 22 hrs. Tert-butylhydroquinone (a Nrf2 stabilizer; tBHQ; 1 μM (“baseline”) or 20 μM) or sulphoraphane, (an organosulfer antioxidant known to activate Nrf2; 1 μM (“baseline”) or 20 μM) in OPTI-MEM® was added to each well and incubated at 37° C. for 24 hrs. Cells were lysed with 100 μL lytic reagent as described above for the forward transfection. Luminescence was measured on a GLOMAX® Luminometer.

Like-named read-outs stand apart in the source and are kept apart here.

B1: 9B8: IV variant with Q18L, F68Y, L72Q, M75K; in Tables 12, 22, 23, 26, 27 “9B8” stands for 9B8 opt (protein)
chain: MVFTLEDFVGDWRQTAGYNLDQVLEQGGLSSLFQKLGVSVTPIQKIVLSGENGLKIDIHVIIPYEGLSGYQMGQIEKIFKVVYPVDDHHFKVILHYGTLVIDGVTPNMIDYFGRPYEGIAVFDGKKITVTGTLWNGNKIIDERLINPDGSLLFRVTINGVTGWRLCERILA
For the molecule B1, the half-life in series [1] was found to be 5.2 h. The “½ life” value in series [2] was found to be 5.8 h; in series [2] (native coelenterazine as substrate), 5.777 h. Further, the “% remaining at t = 4 hrs” value in series [2] (4 h) was 61%.

B2: 9B8 opt: codon optimized version of the 9B8 variant (protein)
chain: B1 chain
Turning to B2, in series [3], the “brightness relative to QUANTILUM Recombinant Luciferase with BRIGHT-GLO” value is given as “approximately 8 fold”. In addition, the luminescence in series [3] (0.5 pM enzyme, 15 min, 9B8 opt with PBI-3939, QUANTILUM with BRIGHT-GLO) is 19,200 RLU. Moreover, the “+ caspase (RLU)” value in series [4] (5 min, z-DEVD-coelenterazine-h) is given as 25,411 RLU; in series [4] (15.3 min) it was 36,906 RLU; in series [4] (29.9 min), 41,854 RLU; in series [4] (60.9 min), 43,370 RLU; in series [4] (190.3 min) it was 42,448 RLU. For the same molecule, the “no caspase (RLU)” value in series [4] (5 min, z-DEVD-coelenterazine-h) was 26,023 RLU; in series [4] (15.3 min) it was 7,707 RLU; in series [4] (29.9 min), 4,013 RLU; in series [4] (60.9 min) it was 2,305 RLU; in series [4] (190.3 min), 1,155 RLU. Also, the baseline in series [5] (1 μM sulphoraphane) was 15,600,000; in series [5] (1 μM tBHQ), 15,100,000. Besides, the Response in series [5] (sulphoraphane) is given as 5.8; in series [5] (tBHQ) it was 8.

Usually half-life stands for the time in which the quantity being followed falls by half. Low readings indicate rapid decline, high ones slow decline.
